Test results: the supplement of paper PMC10201428
± gives the standard deviation of the averaged measurements.

Tests used:
[1] = tested on: VchCAST RNA-guided transposition machinery (E. coli BL21(DE3) host, lacZ target); assay: relative integration efficiency (T-LR orientation) vs wild-type transposon end (log2 (normalized fold change)); transposon end mutated: right end (5 bp flank + 75 bp right end); higher = more efficient transposition
Summary of the method: (§1)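 Relative integration efficiency is a fold change of output over input barcode abundance, normalised to reference barcodes and log-transformed. Input plasmids and genomic integration junctions were PCR-amplified and Illumina-sequenced from E. coli BL21(DE3) co-transformed with a T7-driven effector plasmid and pUC57 donor pools of 1549 left-end or 1849 right-end transposon variants. Plating was done with 0.1 mM IPTG at 37°C for 18 h, with two biological output replicates and four reference barcodes.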

[2] = tested on: VchCAST RNA-guided transposition machinery (E. coli BL21(DE3) host, lacZ target); assay: relative integration efficiency (T-RL orientation) vs wild-type transposon end (log2 (normalized fold change)); transposon end mutated: right end (5 bp flank + 75 bp right end); higher = more efficient transposition
Summary of the method: as §1

| Sequence | relative integration efficiency (log2) [1] | relative integration efficiency (log2) [2] |
| --- | --- | --- |
| ACATTTGTTGATACAACCATAAAATGATAATTAATAATTATTTATAATCAGCAACTTACACCCATAAATTGATAATTATCACACCCATAAATTGATATTGCCTCTGATCATAGTCAGACCAACATTG | -3.43 ± 0.46 | -5.34 ± 0.86 |
| ACATTTGTTGATACAACCATAAAATGATAATTAATAATTATTTATAATCAGCAACTTCACCCATAAATTGATAATTATCAACAAACGCCCGGTCGCGGTACTCTGATCATAGTCAGACCAACATTGC | 0.707 ± 0.87 | -2.15 ± 0.52 |
| ACATTTGTTGATACAACCATAAAATGATAATTAATAATTATTTATAATCAGCAACTTCACCCATAAATTGATAATTATCACACCCATAAATTGATATTGCCTCTGATCATAGTCAGACCAACATTGC | -1.32 ± 0.21 | -3.33 ± 0.32 |
| ACATTTGTTGATACAACCATAAAATGATAATTAATAATTATTTATAATCAGCACACCCATAAATTGATAATTATCAACAAACGCCCGGTCGCGGTACTCTGATCATAGTCAGACCAACATTGCTACG | 0.238 ± 0.52 | -2.43 ± 0.16 |
| ACATTTGTTGATACAACCATAAAATGATAATTAATAATTATTTATAATCAGCACACCCATAAATTGATAATTATCACACCCATAAATTGATATTGCCTCTGATCATAGTCAGACCAACATTGCTACG | -2.77 ± 0.42 | -4.17 ± 0.11 |
| ACATTTGTTGATACAACCATAAAATGATAATTAATAATTATTTATAATCAGCACCCATAAATTGATAATTATCAACAAACGCCCGGTCGCGGTACTCTGATCATAGTCAGACCAACATTGCTACGAC | 0.752 ± 0.5 | -2.03 ± 0.4 |
| ACATTTGTTGATACAACCATAAAATGATAATTAATAATTATTTATAATCAGCACCCATAAATTGATAATTATCACACCCATAAATTGATATTGCCTCTGATCATAGTCAGACCAACATTGCTACGAC | -0.258 ± 0.51 | -3.29 ± 0.1 |
| ACATTTGTTGATACAACCATAAAATGATAATTAATAATTATTTATAATCAGCCACCCATAAATTGATAATTATCAACAAACGCCCGGTCGCGGTACTCTGATCATAGTCAGACCAACATTGCTACGA | 1.16 ± 0.037 | -1.83 ± 0.4 |
| ACATTTGTTGATACAACCATAAAATGATAATTAATAATTATTTATAATCAGCCACCCATAAATTGATAATTATCACACCCATAAATTGATATTGCCTCTGATCATAGTCAGACCAACATTGCTACGA | -0.898 ± 1.2 | -3.35 ± 0.33 |
| ACATTTGTTGATACAACCATAAAATGATAATTAATAATTATTTATAATCCACCCATAAATTGATAATTATCAACAAACGCCCGGTCGCGGTACTCTGATCATAGTCAGACCAACATTGCTACGACCC | 1.24 ± 0.42 | -2.37 ± 0.16 |
| ACATTTGTTGATACAACCATAAAATGATAATTAATAATTATTTATAATCCACCCATAAATTGATAATTATCACACCCATAAATTGATATTGCCTCTGATCATAGTCAGACCAACATTGCTACGACCC | 0.382 ± 0.22 | -3.09 ± 0.19 |
| ACATTTGTTGATACAACCATAAAATGATAATTAATAATTATTTATACACCCATAAATTGATAATTATCAACAAACGCCCGGTCGCGGTACTCTGATCATAGTCAGACCAACATTGCTACGACCCGTA | 0.401 ± 0.042 | -3.12 ± 0.48 |
| ACATTTGTTGATACAACCATAAAATGATAATTAATAATTATTTATACACCCATAAATTGATAATTATCACACCCATAAATTGATATTGCCTCTGATCATAGTCAGACCAACATTGCTACGACCCGTA | -0.465 ± 0.37 | -3.6 ± 0.11 |
| ACATTTGTTGATACAACCATAAAATGATAATTAATAATTATTTATCACCCATAAATTGATAATTATCAACAAACGCCCGGTCGCGGTACTCTGATCATAGTCAGACCAACATTGCTACGACCCGTAT | 2.6 ± 0.053 | -0.654 ± 0.39 |
| ACATTTGTTGATACAACCATAAAATGATAATTAATAATTATTTATCACCCATAAATTGATAATTATCACACCCATAAATTGATATTGCCTCTGATCATAGTCAGACCAACATTGCTACGACCCGTAT | -2.04 ± 0.35 | -3.21 ± 0.32 |
| ACATTTGTTGATACAACCATAAAATGATAATTAATAATTATTTCACCCATAAATTGATAATTATCAACAAACGCCCGGTCGCGGTACTCTGATCATAGTCAGACCAACATTGCTACGACCCGTATTC | 0.365 ± 0.079 | -2.91 ± 0.43 |
| ACATTTGTTGATACAACCATAAAATGATAATTAATAATTATTTCACCCATAAATTGATAATTATCACACCCATAAATTGATATTGCCTCTGATCATAGTCAGACCAACATTGCTACGACCCGTATTC | -2.62 ± 1.1 | -3.8 ± 0.49 |
